{
  "source": "patent US5977174A",
  "about": "“Cholinergic compositions and uses thereof” (Neuromedica, Inc., priority 1997, dated 1999)",
  "origin": "cited, not measured here",
  "molecules": {"B1": {"name": "C84S tPA: tPA variants in which a cysteine at position 84 of the growth factor domain of native tPA is replaced by serine (protein, UniProt P00750 36-562, looked up, variant C84S)", "Tissue-type plasminogen …": "SYQVICRDEKTQMIYQQHQSWLRPVLRSNRVEYCWCNSGRAQCHSVPVKSCSEPRCFNGGTCQQALYFSDFVCQCPEGFAGKCSEIDTRATCYEDQGISYRGTWSTAESGAECTNWNSSALAQKPYSGRRPDAIRLGLGNHNYCRNPDRDSKPWCYVFKAGKYSSEFCSTPACSEGNSDCYFGNGSAYRGTHSLTESGASCLPWNSMILIGKVYTAQNPSAQALGLGKHNYCRNPDGDAKPWCHVLKNRRLTWEYCDVPSCSTCGLRQYSQPQFRIKGGLFADIASHPWQAAIFAKHRRSPGERFLCGGILISSCWILSAAHCFQERFPPHHLTVILGRTYRVVPGEEEQKFEVEKYIVHKEFDDDTYDNDIALLQLKSDSSRCAQESSVVRTVCLPPADLQLPDWTECELSGYGKHEALSPFYSERLKEAHVRLYPSSRCTSQHLLNRTVTDNMLCAGDTRSGGPQANLHDACQGDSGGPLVCLNDGRMTLVGIISWGLGCGQKDVPGVYTKVTNYLDWIRDNMRP"}},
  "data": [
    {"molecule": "B1", "values": [
      {"measurement": "in vivo half life vs native tPA", "result": "longer in vivo half life than native tPA"}
    ]}
  ]
}
